In the supplement of paper PMC9170038:

Test system: MS2 coat protein
Assay: apparent KD of MS2 coat protein; higher = weaker reporter binding
Conditions: Eterna round: R107
Method in brief: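 Apparent KD per design is the median of normalised cluster binding-curve fits. Designed RNA switches transcribed on-chip from Illumina sequencing clusters were titrated with SNAP-549-labelled MS2 coat protein in twofold steps from 0.7 or 1.5 nM to 3 µM, with 0.8–1.5 h down to 10–20 min per step. Buffer: 100 mM Tris-HCl pH 7.5, 80 mM KCl, 4 mM MgCl2, without or with constant ligand.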

[1] = input ligand: theophylline 20 uM
[2] = input ligand: theophylline 2 mM
[3] = input ligand: tryptophan 2.4 mM

UGCAUUAUACAUGGAUCACCCAUGUAGACACGAGGACCGGUACGGCCGCCACUCGGAAGAGGAAACAUGAGGAUCACCCAUGUGA [Try A SS t2]
apparent KD of MS2 coat protein (input ligand: arginine 13.2 mM): 0.0427 µM
apparent KD of MS2 coat protein [1]: 0.0897 µM
apparent KD of MS2 coat protein [2]: 0.105 µM

UGCUACAUGAGGAUCACCCAUGUGGGUGAUACCAGCAUUCGUUUAUGCCCUUGGCAGCGCAGCCGAACCAAUCAUUCGGCAGAAA [Artiusar]
apparent KD of MS2 coat protein (input ligand: arginine 13.2 mM): 0.021 µM
apparent KD of MS2 coat protein (input ligand: none): 0.023 µM
apparent KD of MS2 coat protein [1]: 0.201 µM
apparent KD of MS2 coat protein [2]: 0.861 µM
apparent KD of MS2 coat protein [3]: 0.081 µM

UGGUACAUGGCGGCCGCCACUGGGUUGAAAACCUGAGGAUCACCCUGGUAAAACGCGAAAGCGACUAGGACCGGGUCAUGUACCU
apparent KD of MS2 coat protein (input ligand: arginine 13.2 mM): 0.167 µM
apparent KD of MS2 coat protein (input ligand: none): 0.573 µM
apparent KD of MS2 coat protein [1]: 0.891 µM
apparent KD of MS2 coat protein [2]: 0.787 µM
apparent KD of MS2 coat protein [3]: 0.0705 µM

UGGUCACUAGGAGAUACCAGCCGACAUGAGGAUCACCCAUGUAACCGGCGUCCUCCCUUAGGCCCUUGGCAGCUCGUAGUUGCUC [Vebice]
apparent KD of MS2 coat protein (input ligand: arginine 13.2 mM): 0.0119 µM
apparent KD of MS2 coat protein [1]: 0.0225 µM
apparent KD of MS2 coat protein [3]: 0.0126 µM

UGUACCAUGUCGGCCGCCACUCAUGAUAAACCUGAGGAUCACCCUGGUAGCGUCAAAGACGCUAUGAGGACCGGGACAUGGUACU [TryBS Zipper 2]
apparent KD of MS2 coat protein (input ligand: arginine 13.2 mM): 0.0297 µM
apparent KD of MS2 coat protein (input ligand: none): 0.0244 µM
apparent KD of MS2 coat protein [1]: 0.0352 µM
apparent KD of MS2 coat protein [2]: 0.033 µM
apparent KD of MS2 coat protein [3]: 0.0205 µM

UGUACUAUGUGAAGGAGCGCCACAUGAGGAUCACCCAUGUAAACAUGAGGAUCACCCAUGUGGCAGGUAGGUCGCACAUAGUACU [ArgBS - Double MS2 - I don't expect this to work]
apparent KD of MS2 coat protein (input ligand: arginine 13.2 mM): 0.0497 µM
apparent KD of MS2 coat protein (input ligand: none): 0.108 µM
apparent KD of MS2 coat protein [1]: 0.203 µM
apparent KD of MS2 coat protein [2]: 0.227 µM
apparent KD of MS2 coat protein [3]: 0.0787 µM

UGUAUGGACUGAAGGAGCGCCUCAAAAUAACUUGAGGAUCACCCAGGUAAGGCGAAAGCCGGGCAGGUAGGUCGCAGUCCAUACU [ArgBX 3]
apparent KD of MS2 coat protein (input ligand: arginine 13.2 mM): 0.0312 µM
apparent KD of MS2 coat protein (input ligand: none): 0.037 µM
apparent KD of MS2 coat protein [1]: 0.0431 µM
apparent KD of MS2 coat protein [2]: 0.0723 µM
apparent KD of MS2 coat protein [3]: 0.0499 µM

UGUAUGUGAUCUGAUACCAGAGUGACGCGAAAGCGAAACCUGAGGAUCACCCUGGUAAAACUCCCUUGGCAGCAGAUCGCAUACU
apparent KD of MS2 coat protein (input ligand: arginine 13.2 mM): 0.076 µM
apparent KD of MS2 coat protein (input ligand: none): 0.0495 µM
apparent KD of MS2 coat protein [1]: 0.0353 µM
apparent KD of MS2 coat protein [2]: 0.0239 µM
apparent KD of MS2 coat protein [3]: 0.0683 µM

UGUAUGUGAUCUGAUACCAGCCUCAUAGCUUGAGGAUCACCCAAGUGGAGCGGAAACGCUGGCCCUUGGCAGCAGAUCGCAUACU [TheoBS 1 #AlternativeMS2]
apparent KD of MS2 coat protein (input ligand: arginine 13.2 mM): 0.252 µM
apparent KD of MS2 coat protein (input ligand: none): 0.471 µM
apparent KD of MS2 coat protein [1]: 0.199 µM
apparent KD of MS2 coat protein [2]: 0.0135 µM
apparent KD of MS2 coat protein [3]: 0.516 µM

UGUAUGUGAUCUGAUACCAGUCCAACUGGUAAAAUCUGAGGAUCACCCAGGUAAAAUUGGGACCCUUGGCAGCAGAUCGCAUACU
apparent KD of MS2 coat protein (input ligand: arginine 13.2 mM): 0.146 µM
apparent KD of MS2 coat protein (input ligand: none): 0.175 µM
apparent KD of MS2 coat protein [1]: 0.423 µM
apparent KD of MS2 coat protein [2]: 0.544 µM
apparent KD of MS2 coat protein [3]: 0.235 µM

UGUAUGUGAUCUGAUACCAGUCCCUUGGCAGCAACAUGAGGAUCACCCAUGUAGAUACCAGACCCUUGGCAGCAGAUCGCAUACU [#DoubleAptamer 1]
apparent KD of MS2 coat protein (input ligand: arginine 13.2 mM): 0.00855 µM
apparent KD of MS2 coat protein [1]: 0.00915 µM
apparent KD of MS2 coat protein [3]: 0.0082 µM

UGUAUGUGAUUUGAUACCAGACCAGCUGGUGGUACUUGAGGAUCACCCAGGUAGGUUUGGGUCCCUUGGCAGCAAAUCGCAUACU [SS Theo B #24 Ms12]
apparent KD of MS2 coat protein (input ligand: arginine 13.2 mM): 0.293 µM
apparent KD of MS2 coat protein (input ligand: none): 0.512 µM
apparent KD of MS2 coat protein [1]: 0.731 µM
apparent KD of MS2 coat protein [2]: 0.408 µM
apparent KD of MS2 coat protein [3]: 1.31 µM

UGUAUUGGAAACAGUACUAGUGAUCCGGUCCGAGGACCGGUACGGCCGCCACUCGAAAUUAAUAAACAUGAGGAUCACCCAUGUA [Ex Tryptophan A 11]
apparent KD of MS2 coat protein (input ligand: arginine 13.2 mM): 0.0157 µM
apparent KD of MS2 coat protein [1]: 0.0197 µM
apparent KD of MS2 coat protein [2]: 0.0202 µM

UGUCGAAACUGAAGGAGCGAGAUGACAAACAUGAGGAUCACCCAUGUUAUGGGUUGUUAAUCUCAGGUAGGUCGCAGUGACAAAA [Same State Arginine B GF 16]
apparent KD of MS2 coat protein (input ligand: arginine 13.2 mM): 0.0882 µM
apparent KD of MS2 coat protein (input ligand: none): 0.106 µM
apparent KD of MS2 coat protein [1]: 0.0868 µM
apparent KD of MS2 coat protein [2]: 0.15 µM
apparent KD of MS2 coat protein [3]: 0.103 µM

UGUGACAUGAGGAUCACCCAUGUAAGGGAAGGAGCGCCGAAUAAGGCAGGUAGGUCGCCCAAGAUAGAAGAAUAAUAAGAUUGUG [Arginine A Same State; Euphoria Solution]
apparent KD of MS2 coat protein (input ligand: arginine 13.2 mM): 0.0208 µM
apparent KD of MS2 coat protein (input ligand: none): 0.0271 µM
apparent KD of MS2 coat protein [1]: 0.0399 µM
apparent KD of MS2 coat protein [2]: 0.0279 µM
apparent KD of MS2 coat protein [3]: 0.0283 µM

UGUGUUGUCCGAAGGAGCGGGACCUAAUAGUGGUAACAUGAGGAUCACCCAUGUAUUUCGUCCCAGGUAGGUCGCGGACAGUGUA [ArgiB-ms2@36]
apparent KD of MS2 coat protein (input ligand: arginine 13.2 mM): 0.019 µM
apparent KD of MS2 coat protein (input ligand: none): 0.0207 µM
apparent KD of MS2 coat protein [1]: 0.0322 µM
apparent KD of MS2 coat protein [2]: 0.0251 µM
apparent KD of MS2 coat protein [3]: 0.0217 µM

UUAACGAGCUGAAGGAGCGCUCUUCAUCAACAUGAGGAUCACCCAUGUACACAUAAUAGGGAGCAGGUAGGUCGCAGCGGGAUGG [#24 Same State - Arginine B]
apparent KD of MS2 coat protein (input ligand: arginine 13.2 mM): 0.0142 µM
apparent KD of MS2 coat protein (input ligand: none): 0.0162 µM
apparent KD of MS2 coat protein [1]: 0.0248 µM
apparent KD of MS2 coat protein [2]: 0.0174 µM
apparent KD of MS2 coat protein [3]: 0.0172 µM

UUAUAAGUACCGGUCCUCAGAUCCUCAUGACGAGGACCGGUACGGCCGCCACUCGAAACAUGAGGAUCACCCAUGUAAUAACACU [Brourdmod20]
apparent KD of MS2 coat protein (input ligand: arginine 13.2 mM): 0.0192 µM
apparent KD of MS2 coat protein [1]: 0.0304 µM
apparent KD of MS2 coat protein [2]: 0.0246 µM

UUAUUUAACGGAAGGAGCGCGGAAAUUAAAGUGGGUAAACAUGAGGAUCACCCAUGUAAACCGCAGGUAGGUCGCCGAUAUUUAU [#22 Exclusion - Arginine B]
apparent KD of MS2 coat protein (input ligand: arginine 13.2 mM): 0.043 µM
apparent KD of MS2 coat protein (input ligand: none): 0.0845 µM
apparent KD of MS2 coat protein [1]: 0.0673 µM
apparent KD of MS2 coat protein [2]: 0.0821 µM
apparent KD of MS2 coat protein [3]: 0.0719 µM

UUAUUUAUAAUGGAUACCAGUCGUAUGGCCCGGAAUCCUGACAUGAGGAUCACCCAUGUCGACCCUUGGCAGCUGUUAUGGGUUU [XTheo B #22]
apparent KD of MS2 coat protein (input ligand: arginine 13.2 mM): 0.0137 µM
apparent KD of MS2 coat protein [1]: 0.0163 µM
apparent KD of MS2 coat protein [3]: 0.0149 µM

UUCAAAGGGAACGGUGCUGGUAACAGAGAUACCAGAGUAAUAAUACUCCCUUGGCAGCUCAUAACAUGAGGAUCACCCAUGUAAU [Exclusion Theophylline A GF21]
apparent KD of MS2 coat protein (input ligand: arginine 13.2 mM): 0.0124 µM
apparent KD of MS2 coat protein [1]: 0.0174 µM
apparent KD of MS2 coat protein [3]: 0.0135 µM

UUCAGCUAGUCGGCCGCCACUACAUGAGCAUCAGCCAUGUUCCUAAAACACUGCUUCGGCAGUGGUAGGACCGGGACUAGCUGAG
apparent KD of MS2 coat protein (input ligand: arginine 13.2 mM): 0.0104 µM
apparent KD of MS2 coat protein (input ligand: none): 0.011 µM
apparent KD of MS2 coat protein [1]: 0.012 µM
apparent KD of MS2 coat protein [2]: 0.0126 µM
apparent KD of MS2 coat protein [3]: 0.0259 µM

UUCAGUACAACAGAUACCAGACAGUACUCUAAAUUGCAACAUGAGGAUCACCCAUGUAUAGUCCCUUGGCAGCUGUAAUGGGUGA [Theo B SS s2]
apparent KD of MS2 coat protein (input ligand: arginine 13.2 mM): 0.15 µM
apparent KD of MS2 coat protein [1]: 0.159 µM
apparent KD of MS2 coat protein [3]: 0.0708 µM

UUCGCGGCCGCGCUGCACAUGUGUGUGUUACGAGGACCGGUACGGCCGCCACUCGCGAUCGCACAUGAGGAUCACCCAUGUGGGA [Exclusion Tryp A GF17]
apparent KD of MS2 coat protein (input ligand: arginine 13.2 mM): 0.0241 µM
apparent KD of MS2 coat protein (input ligand: none): 0.0257 µM
apparent KD of MS2 coat protein [1]: 0.0358 µM
apparent KD of MS2 coat protein [2]: 0.0756 µM
apparent KD of MS2 coat protein [3]: 1.04 µM

UUCUACAUGAGGAUCACCCAUGUAAACGAUACCAGACGAGUAUUAGUCCCUUGGCAGCGUAGAGUGUCGUUUAUAGUAGGAUACC [TheoA-ms2@5]
apparent KD of MS2 coat protein (input ligand: arginine 13.2 mM): 0.0234 µM
apparent KD of MS2 coat protein [1]: 0.0261 µM
apparent KD of MS2 coat protein [3]: 0.021 µM

UUCUACGGCGAUCUGGGUUUACCAGAUCGACGAGGACCGGUACGGCCGCCACUCGUGUUUCUUUAACAUGAGGAUCACCCAUGUA [#11 Tryptophan A Same State]
apparent KD of MS2 coat protein (input ligand: arginine 13.2 mM): 0.053 µM
apparent KD of MS2 coat protein [1]: 0.0787 µM
apparent KD of MS2 coat protein [2]: 0.0661 µM

UUCUGGUCCCGUGAUACCAGAGACAUGAGGAUCACCCAUGUACAUGAGGAUCACCCAUGUUUCCCUUGGCAGCACUGUAGGGAGC [Exclusion Theophylline B GF 16]
apparent KD of MS2 coat protein (input ligand: arginine 13.2 mM): 0.0799 µM
apparent KD of MS2 coat protein [1]: 0.226 µM
apparent KD of MS2 coat protein [3]: 0.207 µM

UUGCAUAUCUUGGAUACCAGCACAUGAGGAUCACCCAUGUCCGCGGGAUAGCUCCAGAUGUGCCCUUGGCAGCCACAUGCACUUG [Quinzama]
apparent KD of MS2 coat protein (input ligand: arginine 13.2 mM): 0.0109 µM
apparent KD of MS2 coat protein [1]: 0.0184 µM
apparent KD of MS2 coat protein [3]: 0.0107 µM
